{
  "source": "patent US20220096653A1",
  "about": "“CONJUGATE COMPRISING LIGAND AND CEACAM5 ANTIBODY FAB FRAGMENT” (ASTELLAS PHARMA INC., priority 2019, published 2022)",
  "molecules": {"B1": {"name": "[Gd/DOTA-NH—(CH2CH2O)3—CH2—C(═O)—NH—CH2-(1,3-Ph)-C(═O)-Met-Gly-Lys*-Z2(#N)]p-Fab^2 (conjugate)", "heavy": "EVQLVESGGGLVQPGGSLRLSCAASGFNIRDTYMHWVRQAPGKGLEWVARIDPANGNSRYVPKFQGRFTISADTSRNTAYLQMNSLRAEDTAVYYCAPFGYYVSDYAMAYWGQGTLVTVSSASTKGPSVFPLAPSSKSTSGGTAALGCLVKDYFPEPVTVSWNSGALTSGVHTFPAVLQSSGLYSLSSVVTVPSSSLGTQTYICNVNHKPSNTKVDKKVEPKSCD", "light": "DIQLTQSPSSLSASVGDRVTITCRAGESVDIFGVGFLHWYQQKPGKAPKLLIYRASNLESGIPSRFSGSGSRTDFTLTISSLQPEDFATYYCQQTNEDPYTFGQGTKVEIKRTVAAPSVFIFPPSDEQLKSGTASVVCLLNNFYPREAKVQWKVDNALQSGNSQESVTEQDSKDSTYSLSSTLTLSKADYEKHKVYACEVTHQGLSSPVTKSFNRGEC"}, "B2": {"name": "[Gd/DOTA-NH—(CH2CH2O)3—CH2—C(═O)—NH—CH2-(1,3-Ph)-C(═O)-Met-Gly-Lys*-Z2(#S)]p-Fab^2 (conjugate)", "heavy": "B1 heavy", "light": "B1 light"}, "B3": {"name": "[Gd/DOTA-NH—CH2-(1,3-Ph)-C(═O)-Asp-Gly-Lys*-Z2(#N)]p-Fab^2 (conjugate)", "heavy": "B1 heavy", "light": "B1 light"}, "B4": {"name": "[Gd/DOTA-NH—CH2-(1,3-Ph)-C(═O)-Met-Gly-Lys*-Z2(#N)]p-Fab^2 (conjugate)", "heavy": "B1 heavy", "light": "B1 light"}, "B5": {"name": "[Gd/DOTA-NH—(CH2CH2O)3—CH2—C(═O)—NH—CH2-(1,3-Ph)-C(═O)-Gly-Lys*-Z2(#N)]p-Fab^2 (conjugate)", "heavy": "B1 heavy", "light": "B1 light"}, "B6": {"name": "[Gd/DOTA-NH—CH2-(1,3-Ph)-C(═O)-Met-Gly-Lys*-Z2(#S)]p-Fab^2 (conjugate)", "heavy": "B1 heavy", "light": "B1 light"}, "B7": {"name": "(Y-S1-X)p-Fab^2 with Y Gd/DOTA, S1 spacer (p), X -Met-Gly-Lys*-Z2(#N)- (Fab, V domains shown)", "VH": "EVQLVESGGGLVQPGGSLRLSCAASGFNIRDTYMHWVRQAPGKGLEWVARIDPANGNSRYVPKFQGRFTISADTSRNTAYLQMNSLRAEDTAVYYCAPFGYYVSDYAMAYWGQGTLVTVSS", "VL": "DIQLTQSPSSLSASVGDRVTITCRAGESVDIFGVGFLHWYQQKPGKAPKLLIYRASNLESGIPSRFSGSGSRTDFTLTISSLQPEDFATYYCQQTNEDPYTFGQGTKVEIKR", "modifications": "labeling may sit on this chain; sites not stated; labeling portion (MW 1079) on amino groups of the Fab, sites and chain not stated; 1-3 per Fab by MS", "notes": "also called Ex-No 57; conjugate 57"}, "B8": {"name": "(Y-S1-X)p-Fab^2 with Y Gd/4arm-DOTA, S1 spacer (n), X -Met-Gly-Lys*-Z2(#N)- (Fab, V domains shown)", "VH": "B7 VH", "VL": "B7 VL", "modifications": "labeling may sit on this chain; sites not stated; labeling portion (MW 1244) on amino groups of the Fab, sites and chain not stated; 1 per Fab by MS", "notes": "also called Ex-No 58; conjugate 58"}, "B9": {"name": "(Y-S1-X)p-Fab^2 with Y Gd/4arm-DOTA, S1 spacer (o), X -Met-Gly-Lys*-Z2(#N)- (Fab, V domains shown)", "VH": "B7 VH", "VL": "B7 VL", "modifications": "labeling may sit on this chain; sites not stated; labeling portion (MW 1304) on amino groups of the Fab, sites and chain not stated; 1-2 per Fab by MS", "notes": "also called Ex-No 59; conjugate 59"}, "B10": {"name": "[DFO-C(═O)-CH2O-(1,3-Ph)-C(═O)-Gly-Tyr*-CH2-C(═O)-NH-(CH2)2-Z1(#S)]p-Fab^2 (Fab, V domains shown)", "VH": "B7 VH", "VL": "B7 VL", "modifications": "labeling may sit on this chain; sites not stated; labeling portion (MW 1241) bound via 2-iminothiolane-treated amino groups of the Fab, sites and chain not stated; 1 per Fab by MS; free thiols capped with 2-iodoacetamide", "notes": "No metal; also called Ex-No 60; Conjugate No. 60"}, "B11": {"name": "[DFO-C(═O)-(CH2CH2O)4-(1,3-Ph)-C(═O)-Gly-Lys*-Z2(#S)]p-Fab^2 (Fab, V domains shown)", "VH": "B7 VH", "VL": "B7 VL", "modifications": "labeling may sit on this chain; sites not stated; labeling portion (MW 1252) bound via 2-iminothiolane-treated amino groups of the Fab, sites and chain not stated; 1-2 per Fab by MS", "notes": "No metal; also called Ex-No 61; Conjugate No. 61"}, "B12": {"name": "(Y-S1-X)p-Fab^2 with Y Gd/DOTA, S1 - (bond), X -Gly-Val-NH-(CH2)2-Z1(#N)- (Fab, V domains shown)", "VH": "B7 VH", "VL": "B7 VL", "modifications": "labeling may sit on this chain; sites not stated; labeling portion (MW 838) on amino groups of the Fab, sites and chain not stated; 1-2 per Fab by MS", "notes": "also called Ex-No 2; conjugate 2"}, "B13": {"name": "(Y-S1-X)p-Fab^2 with Y DFO, S1 -C(═O)-(1,3-Ph)-C(═O)-, X -Gly-Lys*Z2(#S)- (Fab, V domains shown)", "VH": "B7 VH", "VL": "B7 VL", "modifications": "labeling may sit on this chain; sites not stated; labeling portion (MW 1076) on amino groups of the Fab, sites and chain not stated; 1-3 per Fab by MS", "notes": "No metal; also called Ex-No 64; conjugate 64"}},
  "data": [
    {"tested_on": "not given", "test": "not given", "details": "mouse, in vivo", "units": {"Proportion of decrease (amount of Gd contained in the kidneys)": "%"}, "values": [
      {"molecule": "B1", "% of dose/tissue (amount of Gd contained per kidney)": "6.8 % of dose/tissue", "Proportion of decrease (amount of Gd contained in the kidneys)": 78.0},
      {"molecule": "B2", "% of dose/tissue (amount of Gd contained per kidney)": "7.0 % of dose/tissue", "Proportion of decrease (amount of Gd contained in the kidneys)": 77.4},
      {"molecule": "B3", "% of dose/tissue (amount of Gd contained per kidney)": "14.8 % of dose/tissue", "Proportion of decrease (amount of Gd contained in the kidneys)": 52.2},
      {"molecule": "B4", "% of dose/tissue (amount of Gd contained per kidney)": "15.4 % of dose/tissue", "Proportion of decrease (amount of Gd contained in the kidneys)": 50.3},
      {"molecule": "B5", "% of dose/tissue (amount of Gd contained per kidney)": "17.1 % of dose/tissue", "Proportion of decrease (amount of Gd contained in the kidneys)": 44.8},
      {"molecule": "B6", "% of dose/tissue (amount of Gd contained per kidney)": "12.9 % of dose/tissue", "Proportion of decrease (amount of Gd contained in the kidneys)": 58.3}
    ]},
    {"biological_target": "T1, CEACAM5 (R&D Systems, 4128-CM-050) (human, UniProt P06731 35-685)", "T1 construct": "Immobilised on the ELISA plate; also called human CEACAM5", "T1 sequence (looked up)": "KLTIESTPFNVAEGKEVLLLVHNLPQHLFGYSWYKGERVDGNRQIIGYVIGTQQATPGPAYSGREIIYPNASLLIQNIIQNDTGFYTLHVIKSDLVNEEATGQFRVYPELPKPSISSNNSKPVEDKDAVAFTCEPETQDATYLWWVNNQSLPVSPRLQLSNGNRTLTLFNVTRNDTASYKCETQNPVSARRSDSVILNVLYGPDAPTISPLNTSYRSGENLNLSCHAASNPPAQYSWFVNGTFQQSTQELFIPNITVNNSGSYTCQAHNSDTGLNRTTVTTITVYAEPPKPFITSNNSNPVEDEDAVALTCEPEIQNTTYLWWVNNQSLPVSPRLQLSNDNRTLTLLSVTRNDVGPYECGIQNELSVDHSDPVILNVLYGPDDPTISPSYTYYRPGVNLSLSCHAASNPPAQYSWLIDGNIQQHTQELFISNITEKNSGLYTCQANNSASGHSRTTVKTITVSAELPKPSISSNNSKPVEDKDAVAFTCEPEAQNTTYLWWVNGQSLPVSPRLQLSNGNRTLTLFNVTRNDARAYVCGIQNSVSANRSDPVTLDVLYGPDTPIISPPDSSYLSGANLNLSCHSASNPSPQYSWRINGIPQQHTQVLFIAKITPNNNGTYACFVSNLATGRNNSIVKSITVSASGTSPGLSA", "test": "ELISA on immobilised CEACAM5, 4-parameter fit, duplicate", "details": "not given", "in_short": "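CEACAM5 immobilised at 0.1 μg/mL in 10 mM phosphate pH 7.2 overnight at 4° C, blocked with 5% BSA; Fab conjugates from about 10000 ng/mL in 14 threefold steps, 60 min at RT. HRP anti-human IgG (H+L) then ECL chemiluminescence; EC₅₀ by 4-parameter logistic fit, duplicates.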", "units": {"EC50": "nM"}, "values": [
      {"molecule": "B7", "EC50": 0.29},
      {"molecule": "B8", "EC50": 0.28},
      {"molecule": "B9", "EC50": 0.3},
      {"molecule": "B10", "EC50": 0.18},
      {"molecule": "B11", "EC50": 0.18},
      {"molecule": "B12", "EC50": 0.14},
      {"molecule": "B13", "EC50": 0.2}
    ]},
    {"tested_on": "not given", "test": "not given", "design": "species or system mice (BALB/c nu/nu)", "details": "mouse, in vivo", "remark": "another data set of the same source", "units": {"Renal residual amount (tumor-bearing mice) Proportion of decrease": "%"}, "values": [
      {"molecule": "B1", "Renal residual amount (tumor-bearing mice) % of dose/tissue": "8.40 % of dose/tissue", "Renal residual amount (tumor-bearing mice) Proportion of decrease": 67.48},
      {"molecule": "B2", "Renal residual amount (tumor-bearing mice) % of dose/tissue": "9.40 % of dose/tissue", "Renal residual amount (tumor-bearing mice) Proportion of decrease": 63.61},
      {"molecule": "B6", "Renal residual amount (tumor-bearing mice) % of dose/tissue": "12.33 % of dose/tissue", "Renal residual amount (tumor-bearing mice) Proportion of decrease": 52.26}
    ]}
  ]
}
